Target: H-2 I-A^b class II MHC molecule (mouse (endogenous in LB27.4))
Test: radioligand binding

B1: 14-mer N-acetylated P. merdae β-hex peptide (peptide)
peptide: Ac-KWDYRESRVWVNDQ-NH2
fold lower binding than the P. goldsteinii epitope: 3 fold

From doi:10.1101/2020.08.05.236513
